In article PMC6426840:

Target: recombinant human matrix metalloproteinase-2 (rh-proMMP2 activated with APMA) (human) (UniProt P08253)
UniProt P08253, sequence (P08253 30-660): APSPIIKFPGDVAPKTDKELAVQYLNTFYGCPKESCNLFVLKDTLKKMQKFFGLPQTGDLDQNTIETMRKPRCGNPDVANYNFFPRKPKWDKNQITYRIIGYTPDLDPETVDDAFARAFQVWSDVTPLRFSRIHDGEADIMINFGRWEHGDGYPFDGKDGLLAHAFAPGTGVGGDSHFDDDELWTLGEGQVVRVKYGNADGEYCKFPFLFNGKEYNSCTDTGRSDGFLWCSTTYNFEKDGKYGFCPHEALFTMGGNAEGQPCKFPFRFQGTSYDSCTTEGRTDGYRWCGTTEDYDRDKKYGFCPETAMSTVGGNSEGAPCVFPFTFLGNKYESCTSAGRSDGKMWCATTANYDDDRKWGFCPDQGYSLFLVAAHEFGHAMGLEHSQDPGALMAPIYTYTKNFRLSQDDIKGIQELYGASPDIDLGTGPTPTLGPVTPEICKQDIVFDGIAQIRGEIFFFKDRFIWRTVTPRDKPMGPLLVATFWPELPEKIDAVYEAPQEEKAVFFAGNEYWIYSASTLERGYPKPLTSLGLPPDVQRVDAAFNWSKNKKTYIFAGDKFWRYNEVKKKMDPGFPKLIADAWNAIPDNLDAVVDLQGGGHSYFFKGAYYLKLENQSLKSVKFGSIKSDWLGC

- MMP2 enzyme activity left (fluorogenic peptide MCA-Pro-Leu-Ala-Nva-Dpa-Ala-Arg-NH2, endpoint after 5 h) with 100 ng/mL rhMMP2 and 40 ng/mL rhTIMP3, molecular ratio about 1:1, without GAG: 15%
- TIMP3-induced inhibition of MMP2 enzyme activity when hyaluronan (HA, 200 µg/mL) is added to MMP2 and TIMP3 pre-incubated for 30 min at 25 °C; change against the control without GAG: 5%
B1: recombinant human tissue inhibitor of metalloproteinases 3 (natural protein)
chain: CTCSPSHPQDAFCNSDIVIRAKVVGKKLVKEGPFGTLVYTIKQMKMYRGFTKMPHVQYIHTEASESLCGLKLEVNKYQYLLTGRVYDGKMYTGLCNFVERWDQLTLSQRKGLNYRYHLGCNCKIKSCYYLPCFVTSKNECLWTDMLSNFGYPGYQSKHYACIRQKGGYCSWYRGWAPPDKSIINATDP
